Earlier results in publication PMC4569521.

Key:
[1] = biological target: MuA recognition peptides (Escherichia phage Mu) (UniProt P07636)
[2] = biological target: MuA tetramer (Escherichia phage Mu) (UniProt P07636)
Chain of MuA tetramer (Escherichia phage Mu) (P07636 whole entry): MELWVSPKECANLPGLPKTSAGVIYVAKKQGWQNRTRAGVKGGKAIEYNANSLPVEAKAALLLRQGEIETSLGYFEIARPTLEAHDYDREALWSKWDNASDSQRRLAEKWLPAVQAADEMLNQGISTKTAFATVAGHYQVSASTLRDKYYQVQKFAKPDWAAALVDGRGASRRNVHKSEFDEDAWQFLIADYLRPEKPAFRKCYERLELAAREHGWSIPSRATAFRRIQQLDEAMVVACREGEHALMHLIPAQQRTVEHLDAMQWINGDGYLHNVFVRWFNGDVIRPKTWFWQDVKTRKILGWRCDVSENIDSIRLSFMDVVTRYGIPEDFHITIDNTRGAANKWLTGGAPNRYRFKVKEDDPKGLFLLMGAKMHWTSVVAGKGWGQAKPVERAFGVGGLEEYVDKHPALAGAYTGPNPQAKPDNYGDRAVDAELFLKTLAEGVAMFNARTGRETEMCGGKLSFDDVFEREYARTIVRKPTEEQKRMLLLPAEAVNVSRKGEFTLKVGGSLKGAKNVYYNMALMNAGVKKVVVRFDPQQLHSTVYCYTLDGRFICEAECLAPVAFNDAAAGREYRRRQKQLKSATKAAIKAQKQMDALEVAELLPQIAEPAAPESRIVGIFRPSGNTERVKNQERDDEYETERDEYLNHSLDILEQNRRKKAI

Chain of ClpX (P0A6H1 2-424): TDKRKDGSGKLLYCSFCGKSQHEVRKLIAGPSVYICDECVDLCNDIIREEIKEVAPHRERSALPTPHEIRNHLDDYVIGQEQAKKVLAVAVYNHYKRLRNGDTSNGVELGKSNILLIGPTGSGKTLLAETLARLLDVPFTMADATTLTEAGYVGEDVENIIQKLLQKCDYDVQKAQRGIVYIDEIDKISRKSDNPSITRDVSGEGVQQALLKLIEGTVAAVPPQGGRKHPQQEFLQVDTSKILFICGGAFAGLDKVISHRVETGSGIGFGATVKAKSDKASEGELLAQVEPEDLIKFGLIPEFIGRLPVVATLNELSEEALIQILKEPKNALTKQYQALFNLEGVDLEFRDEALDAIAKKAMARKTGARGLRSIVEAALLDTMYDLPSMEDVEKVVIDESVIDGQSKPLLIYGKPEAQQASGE
Chain of MuA recognition peptides (Escherichia phage Mu) (P07636 whole entry, looked up): as the sequence (P07636 whole entry) above

In the case of ClpX (from UniProt P0A6H1), the Kd [1] is listed as > 70000 nM and the Kd [2] is listed as 1000 nM.
